Reference: publication PMC2764455

Assays:
bPrP peptide 16 = target: T1, bPrP peptide 16 (bovine, UniProt P10279 108-119); experiment: microchip electrophoresis
T1 chain: GQWNKPSKPKTN

bPrP peptide 1 = target: T2, bPrP peptide 1 (bovine, UniProt P10279 25-36); experiment: microchip electrophoresis
T2 chain: KKRPKPGGGWNT

Q: Does GGAGGAGGAGGA (structured_RNA) [R12] bind (bPrP peptide 16)?
A: binds

Q: Does GGAGGAGGAGGA (structured_RNA) [R12] bind (bPrP peptide 1)?
A: binds
